Assay results from US20240309115A1 (MERUS N V, published 2024).
Numbering of substitutions follows the chain as printed.

T1: human LAG-3 (293FF cell line stably transfected with human LAG-3) (human, UniProt P18627 23-525)
T1 construct: whole, on cells; also called huLAG-3; 293FF-huLAG-3
T1 sequence (looked up): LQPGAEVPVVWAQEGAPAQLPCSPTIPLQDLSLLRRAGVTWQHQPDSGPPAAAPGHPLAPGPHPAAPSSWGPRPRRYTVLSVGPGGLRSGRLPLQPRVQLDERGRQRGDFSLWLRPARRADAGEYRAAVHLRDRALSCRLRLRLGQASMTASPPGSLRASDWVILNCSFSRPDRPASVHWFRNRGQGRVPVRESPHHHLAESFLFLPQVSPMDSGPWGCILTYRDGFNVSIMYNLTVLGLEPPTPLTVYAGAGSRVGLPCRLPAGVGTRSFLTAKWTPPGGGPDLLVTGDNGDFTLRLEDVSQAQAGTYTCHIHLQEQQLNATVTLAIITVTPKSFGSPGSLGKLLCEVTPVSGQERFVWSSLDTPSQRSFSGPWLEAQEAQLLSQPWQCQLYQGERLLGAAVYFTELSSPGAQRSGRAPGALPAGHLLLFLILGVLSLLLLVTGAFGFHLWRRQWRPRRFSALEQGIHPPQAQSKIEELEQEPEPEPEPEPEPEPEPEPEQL

T2: LAG-3 on PD-1 and LAG-3 expressing Jurkat T cells (effector cells of the PD-1/LAG-3 reporter assay) (UniProt P18627 23-525)
T2 sequence (looked up): T1 sequence (looked up)

T3: rhesus LAG-3 (293FF cell line stably transfected with rhesus LAG-3) (rhesus, UniProt A0A5F8A874 23-533)
T3 construct: whole, on cells; also called reLAG-3; 293FF-reLAG-3
T3 sequence: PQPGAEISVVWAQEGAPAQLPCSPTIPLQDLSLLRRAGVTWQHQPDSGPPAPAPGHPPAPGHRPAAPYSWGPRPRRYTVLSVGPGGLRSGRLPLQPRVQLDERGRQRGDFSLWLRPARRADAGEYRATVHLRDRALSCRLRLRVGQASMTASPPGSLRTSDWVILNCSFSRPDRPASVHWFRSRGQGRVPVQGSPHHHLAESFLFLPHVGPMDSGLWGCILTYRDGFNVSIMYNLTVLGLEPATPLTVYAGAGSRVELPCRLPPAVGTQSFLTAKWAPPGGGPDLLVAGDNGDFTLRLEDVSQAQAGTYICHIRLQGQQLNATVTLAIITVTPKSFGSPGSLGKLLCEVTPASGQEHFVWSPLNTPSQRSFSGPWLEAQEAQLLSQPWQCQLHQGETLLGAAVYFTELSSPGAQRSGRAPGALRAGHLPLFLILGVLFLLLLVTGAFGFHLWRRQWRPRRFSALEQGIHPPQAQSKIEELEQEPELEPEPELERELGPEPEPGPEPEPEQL

B1: SEQ ID NO: 5×SEQ ID NO: 23 bispecific antibody (bispecific antibody)
heavy (part 1 of 2) 1: QVQLQESGPGLVKPSETLSLTCTVSDDSISDYYWSWIRQPPGKGLEWIGYIYYSGNTKYNPSLKNRVTISVDTSKSQFSLKLTSVTAADTAVYYCARIPLTGEFDYWAQGTLVTVSSASTKGPSVFPLAPSSKSTSGGTAALGCLVKDYFPEPVTVSWNSGALTSGVHTFPAVLQSSGLYSLSSVVTVPSSSLGTQTYICNVNHKPSNTKVDKRV
heavy (part 2 of 2) 1: not shown
heavy (part 1 of 2) 2: not shown
heavy (part 2 of 2) 2: not shown
light: not shown
notes: Fc-silenced IgG1, monovalent for LAG-3 and for PD-L1; also called PB19; not shown: IgG1 hinge
B2: SEQ ID NO: 52×SEQ ID NO: 20 bispecific antibody (bispecific antibody)
heavy (part 1 of 2) 1: B1 heavy (part 1 of 2) 1 with E103D, Y106F
heavy (part 2 of 2) 1: not shown
heavy (part 1 of 2) 2: not shown
heavy (part 2 of 2) 2: not shown
light: not shown
notes: IgG1; also called PB90; not shown: IgG1 hinge
B3: SEQ ID NO: 16×SEQ ID NO: 23 bispecific antibody (bispecific antibody)
heavy (part 1 of 2) 1: QVQLVQSGAEVKKPGASVKVSCKASGYTFTSYGISWVRQAPGQGLEWMGWISAYSGNTNYAQKLQGRVTMTTDTSTSTAYMELRSLRSDDTAVYYCARGSILAAQMWGDIWGQGTLVTVSSASTKGPSVFPLAPSSKSTSGGTAALGCLVKDYFPEPVTVSWNSGALTSGVHTFPAVLQSSGLYSLSSVVTVPSSSLGTQTYICNVNHKPSNTKVDKRV
heavy (part 2 of 2) 1: not shown
heavy (part 1 of 2) 2: not shown
heavy (part 2 of 2) 2: not shown
light: not shown
notes: Fc-silenced IgG1, monovalent for LAG-3 and for PD-L1; also called PB63; not shown: IgG1 hinge
B4: SEQ ID NO: 1×SEQ ID NO: 23 bispecific antibody (bispecific antibody)
heavy (part 1 of 2) 1: QVQLQESGPGLVRPSETLSLTCTVSGGSISSYSWSWIRQPPGKGLEWIGYIDYSGSTNYNPSLKSRVTISVDTSKTQFSLKLSSVSAADTAVYYCAKDLLYKWNYVEGFDIWGQGTTVTVSSASTKGPSVFPLAPSSKSTSGGTAALGCLVKDYFPEPVTVSWNSGALTSGVHTFPAVLQSSGLYSLSSVVTVPSSSLGTQTYICNVNHKPSNTKVDKRV
heavy (part 2 of 2) 1: not shown
heavy (part 1 of 2) 2: not shown
heavy (part 2 of 2) 2: not shown
light: not shown
notes: Fc-silenced IgG1, monovalent for LAG-3 and for PD-L1; also called PB3; not shown: IgG1 hinge
B5: SEQ ID NO: 15×SEQ ID NO: 23 bispecific antibody (bispecific antibody)
heavy (part 1 of 2) 1: QVQLVQSGAEVKKPGASVKVSCKASGYTFTSYGISWVRQAPGQGLEWMGWISAYSGNTNYAQKLQGRVTMTTDTSTSTAYMELRSLRSDDTAVYYCARDGSGWDDFDYWGQGTLVTVSSASTKGPSVFPLAPSSKSTSGGTAALGCLVKDYFPEPVTVSWNSGALTSGVHTFPAVLQSSGLYSLSSVVTVPSSSLGTQTYICNVNHKPSNTKVDKRV
heavy (part 2 of 2) 1: not shown
heavy (part 1 of 2) 2: not shown
heavy (part 2 of 2) 2: not shown
light: not shown
notes: Fc-silenced IgG1, monovalent for LAG-3 and for PD-L1; also called PB59; not shown: IgG1 hinge
B6: bivalent monospecific parental LAG-3 antibody SEQ ID NO: 15 (antibody, IgG1)
heavy (part 1 of 2): B5 heavy (part 1 of 2) 1
heavy (part 2 of 2): not shown
light: not shown
notes: IgG1; not shown: IgG1 hinge
B7: relatlimab analog (antibody, V domains shown)
VH: QVQLQQWGAGLLKPSETLSLTCAVYGGSFSDYYWNWIRQPPGKGLEWIGEINHRGSTNSNPSLKSRVTLSLDTSKNQFSLKLRSVTAADTAVYYCAFGYSDYEYNWFDPWGQGTLVTVSS
VL: EIVLTQSPATLSLSPGERATLSCRASQSISSYLAWYQQKPGQAPRLLIYDASNRATGIPARFSGSGSGTDFTLTISSLEPEDFAVYYCQQRSNWPLTFGQGTNLEIK
notes: also called analog of anti-LAG-3 antibody relatlimab
B8: bivalent monospecific parental LAG-3 antibody SEQ ID NO: 1 (antibody, IgG1)
heavy (part 1 of 2): B4 heavy (part 1 of 2) 1
heavy (part 2 of 2): not shown
light: not shown
notes: IgG1; not shown: IgG1 hinge
B9: bivalent monospecific parental LAG-3 antibody SEQ ID NO: 5 (antibody, IgG1)
heavy (part 1 of 2): B1 heavy (part 1 of 2) 1
heavy (part 2 of 2): not shown
light: not shown
notes: IgG1; not shown: IgG1 hinge
B10: bivalent monospecific parental LAG-3 antibody SEQ ID NO: 16 (antibody, IgG1)
heavy (part 1 of 2): B3 heavy (part 1 of 2) 1
heavy (part 2 of 2): not shown
light: not shown
notes: IgG1; not shown: IgG1 hinge

How the values were obtained:
[1] = target: T1, human LAG-3 (293FF cell line stably …); assay: FACS on 293FF cells expressing human LAG-3
[2] = target: T4, human PD-L1 (CHO-K1 cell line stably transfected with human PD-L1) (human, UniProt Q9NZQ7 19-290); assay: FACS on CHO-K1 cells expressing human PD-L1
T4 construct: whole, on cells; also called huPD-L1; CHO-K1-huPD-L1

[3] = target: T5, PD-L1 on PD-L1 expressing Raji cells (target cells of the PD-1/LAG-3 reporter assay) (UniProt Q9NZQ7 19-290, limits assumed); assay: cell-based or functional assay
[4] = target: T2, LAG-3 on PD-1 and LAG-3 expressing …; assay: cell-based or functional assay
[5] = target: T1, human LAG-3 (293FF cell line stably …); assay: FACS on 293FF-huLAG-3 cells
[6] = target: T4, human PD-L1 (CHO-K1 cell line stably …); assay: FACS on CHO-K1-huPD-L1 cells
[7] = target: T3, rhesus LAG-3 (293FF cell line stably …); assay: FACS on 293FF-reLAG-3 cells
[8] = target: T5, PD-L1 on PD-L1 expressing Raji cells …; assay: cell-based or functional assay; remark: listed apart in the source
[9] = target: T2, LAG-3 on PD-1 and LAG-3 expressing …; assay: cell-based or functional assay; remark: listed apart in the source
[10] = target: T6, rhesus PD-L1 (CHO-K1 cell line stably transfected with rhesus PD-L1) (rhesus, UniProt F6VEW6 19-290); assay: FACS on CHO-K1 cells stably expressing rhesus PD-L1, goat-anti-human PE secondary, MFI
T6 construct: whole, on cells

[11] = target: T3, rhesus LAG-3 (293FF cell line stably …); assay: FACS on 293FF cells stably expressing rhesus LAG-3, goat-anti-human PE secondary, MFI
[12] = target: T7, cynomolgus monkey LAG-3-His (Sino Biological, Cat nr. 90841-C08H) (cynomolgus monkey); assay: SPR, BIAcore T200, antibody captured by anti-huIgG Fcγ on a CM5 chip, antigen in solution, 1:1 model
T7 construct: also called cynomolgus LAG-3

T5 sequence (Q9NZQ7 19-290 limits assumed): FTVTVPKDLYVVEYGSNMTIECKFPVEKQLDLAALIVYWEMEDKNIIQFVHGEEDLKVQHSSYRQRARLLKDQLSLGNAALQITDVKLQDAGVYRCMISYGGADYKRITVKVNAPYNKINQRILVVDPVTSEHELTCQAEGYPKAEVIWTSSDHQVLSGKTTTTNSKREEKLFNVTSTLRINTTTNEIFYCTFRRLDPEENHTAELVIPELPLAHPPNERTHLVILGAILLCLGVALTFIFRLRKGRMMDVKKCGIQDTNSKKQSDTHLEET
T4 sequence (Q9NZQ7 19-290): as the sequence (Q9NZQ7 19-290 limits assumed) above

Binder | EC50 [1] | EC50 [2] | AUC compared to control, PD-1/LAG-3 reporter assay (luciferase) [3] | AUC compared to control, PD-1/LAG-3 reporter assay (luciferase) [4] | other results
B1 | 8.64 nM | 1.21 nM | 83.9 relative to AUC of positive control | 83.9 relative to AUC of positive control | 
B2 |  |  |  |  | EC50 [5]: 1.25 µg/mL; EC50 [6]: 0.009 µg/mL; EC50 [7]: 3.22 µg/mL; AUC (% of control), PD-1/LAG-3 reporter assay [8]: 96.9 % of control; EC50, PD-1/LAG-3 reporter assay [8]: 1.15 µg/mL; AUC (% of control), PD-1/LAG-3 reporter assay [9]: 96.9 % of control; EC50, PD-1/LAG-3 reporter assay [9]: 1.15 µg/mL
B3 | 24.1 nM | 1.01 nM | 58.3 relative to AUC of positive control | 58.3 relative to AUC of positive control | 
B4 | 52.1 nM | 0.74 nM | 54.8 relative to AUC of positive control | 54.8 relative to AUC of positive control | EC50 (read off the curve) [10]: ~0.05 µg/mL
B5 | 113 nM | 2.41 nM | 71 relative to AUC of positive control | 71 relative to AUC of positive control | 
B6 | 0.94 nM |  |  |  | EC50 (read off the curve) [11]: ~0.6 µg/mL
B7 |  |  |  |  | Kd [12]: 11.5 nM
B8 | 0.54 nM |  |  |  | 
B9 | 1.88 nM |  |  |  | 
B10 | 13.3 nM |  |  |  | 
